Measured values published in US20220332804A1 (CSL INNOVATION, published 2022).
Positions count from the first letter of the chain named.

Assays:
Experiment in all cases: SPR, KD relative to WT C2;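 also: biacore SPR at 37 °C, anti-C2 mAbs captured via immobilised goat anti-human IgG, C2 alanine or serine surface mutants as analytes, 1:1 model fitted, double-referenced sensograms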
human C2 R688A = target: T1, human C2 R688A (human, UniProt P06681 21-752)
T1 sequence: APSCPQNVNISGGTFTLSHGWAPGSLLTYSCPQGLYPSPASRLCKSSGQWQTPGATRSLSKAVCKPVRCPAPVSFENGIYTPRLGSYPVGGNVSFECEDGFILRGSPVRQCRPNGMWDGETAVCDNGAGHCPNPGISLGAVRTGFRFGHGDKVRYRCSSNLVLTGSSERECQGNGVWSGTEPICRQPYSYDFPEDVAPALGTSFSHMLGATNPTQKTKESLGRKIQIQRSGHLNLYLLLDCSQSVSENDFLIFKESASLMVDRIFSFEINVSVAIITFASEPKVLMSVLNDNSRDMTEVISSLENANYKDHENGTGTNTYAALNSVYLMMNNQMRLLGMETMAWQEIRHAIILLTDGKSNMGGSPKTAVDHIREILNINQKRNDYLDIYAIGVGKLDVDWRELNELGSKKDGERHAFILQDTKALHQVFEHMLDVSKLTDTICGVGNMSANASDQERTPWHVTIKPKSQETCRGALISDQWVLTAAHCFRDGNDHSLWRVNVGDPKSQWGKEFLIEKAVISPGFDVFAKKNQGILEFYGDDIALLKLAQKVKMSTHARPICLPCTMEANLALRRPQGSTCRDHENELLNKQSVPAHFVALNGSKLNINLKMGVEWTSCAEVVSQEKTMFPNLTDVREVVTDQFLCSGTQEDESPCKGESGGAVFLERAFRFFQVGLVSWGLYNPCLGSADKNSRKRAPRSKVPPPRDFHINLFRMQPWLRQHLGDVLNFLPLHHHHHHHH

human C2 N325A = target: T2, human C2 N325A (human, UniProt P06681 21-752)
T2 sequence: T1 sequence with N305A, A668R

human C2 N703A = target: T3, human C2 N703A (human, UniProt P06681 21-752)
T3 sequence: T1 sequence with A668R, N683A

human C2 R493A = target: T4, human C2 R493A (human, UniProt P06681 21-752)
T4 sequence: T1 sequence with R473A, A668R

B1: RF16-226 (antibody, human IgG4 S228P, lambda)
heavy: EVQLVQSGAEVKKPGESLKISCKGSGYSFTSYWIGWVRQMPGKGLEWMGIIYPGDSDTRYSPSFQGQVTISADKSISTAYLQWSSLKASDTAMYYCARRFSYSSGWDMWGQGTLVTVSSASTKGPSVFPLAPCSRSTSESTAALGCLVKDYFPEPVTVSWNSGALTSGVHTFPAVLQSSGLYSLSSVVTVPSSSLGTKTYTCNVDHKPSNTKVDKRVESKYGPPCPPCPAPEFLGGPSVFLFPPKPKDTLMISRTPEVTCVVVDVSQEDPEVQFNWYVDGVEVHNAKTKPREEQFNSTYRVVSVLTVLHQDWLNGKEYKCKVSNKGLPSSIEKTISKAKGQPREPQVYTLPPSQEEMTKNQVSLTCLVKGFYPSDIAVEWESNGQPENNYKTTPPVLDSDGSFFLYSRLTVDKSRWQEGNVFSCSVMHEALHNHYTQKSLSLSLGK
light: SYELTQPPSVSVSPGQTARITCSGDALTSKYVAWYQQKSGLAPLLVIYEDTRRPSGIPAKFSGSSSGSVATLTISGAHGDDEADYYCYSTDASGHQRVFGGGTKLTVLSQPKAAPSVTLFPPSSEELQANKATLVCLISDFYPGAVTVAWKADGSPVKAGVETTKPSKQSNNKYAASSYLSLTPEQWKSHRSYSCQVTHEGSTVEKTVAPTECS
notes: pH-dependent anti-C2 antibody from a phage display library; also called WT
Fold diff (human C2 R688A): 3 fold | Fold diff (human C2 N325A): 5 fold | Fold diff (human C2 N703A): 29 fold | Fold diff (human C2 R493A): 2 fold
